Assay results published in patent US20140196168A1 (SWETREE TECHNOLOGIES, published 2014).

B1: ZFHD1 amino acids 1-132 (two-hybrid derivative, Gal4 activation domain fusion) (other, Arabidopsis thaliana, UniProt Q9SEZ1 1-132, looked up, not shown: large carriers)
chain: MDLSSKPQQQLLNSLPIAGELTVTGEMGVCYKECLKNHAANLGGHALDGCGEFMPSPTATSTDPSSLRCAACGCHRNFHRRDPSENLNFLTAPPISSPSGTESPPSRHVSSPVPCSYYTSAPPHHVILSLSS
B2: DREB2A amino acids 169-254 (two-hybrid derivative, Gal4 activation domain fusion) (other, Arabidopsis thaliana, UniProt O82132 169-254, looked up, not shown: large carriers)
chain: CESKPFSGGVEPMYCLENGAEEMKRGVKADKHWLSEFEHNYWSDILKEKEKQKEQGIVETCQQQQQDSLSVADYGWPNDVDQSHLD

Target: T1, Gal4-DNA Binding Domain fused to the Arabidopsis thaliana Med25 551-680 amino acid domain (bait, pGBKT7-Med25 … (Arabidopsis thaliana))
T1 construct: Expressed in yeast AH109 as a two-hybrid bait; also called G4-DBD-Med25; Med25 bait construct
Test: yeast two-hybrid with deletion derivatives

| Binder | binding result |
| --- | --- |
| B1 | binds |
| B2 | binds |
